Measured values taken from patent US20230312753A1 (IMMUNORIZON, published 2023).

Columns and labels:
[1] = biological target: T1, 5T4 on cells (NCI-H226 endogenous; CHO over-expressing 5T4) (UniProt Q13641 32-420, limits assumed); test: FACS on CHO cells over-expressing ectopic 5T4 (FIG. 45D)
T1 construct: whole, on cells
T1 sequence (looked up): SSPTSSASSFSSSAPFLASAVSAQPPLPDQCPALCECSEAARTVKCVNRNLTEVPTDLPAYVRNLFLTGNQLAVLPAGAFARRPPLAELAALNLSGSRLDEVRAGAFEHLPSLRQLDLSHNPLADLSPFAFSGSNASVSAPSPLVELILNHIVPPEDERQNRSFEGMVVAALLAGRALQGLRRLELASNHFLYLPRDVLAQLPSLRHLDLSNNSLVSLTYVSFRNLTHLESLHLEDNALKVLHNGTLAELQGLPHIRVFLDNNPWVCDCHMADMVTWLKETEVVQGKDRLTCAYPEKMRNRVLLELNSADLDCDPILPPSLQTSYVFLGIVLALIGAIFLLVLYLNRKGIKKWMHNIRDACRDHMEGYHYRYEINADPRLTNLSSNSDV
Method: (§1) Then wash the cells 3 times with 170 µL FACS buffer. Re-suspend the cells at 100 µL/well with secondary antibody (goat anti-human Ig Fab-FITC, Cat # 2085-02, Southern biotech) with 1:400 dilution and incubate the plate for 30 min at 4° C. in dark. Centrifuge the plate at 2000 rpm, 4° C. for 5 min and discard supernatant. Then wash the cells 3 times with FACS buffer and analyze the sample with FACS verse. The fluorescence intensity of the staining was measured using flow cytometer (BD, FACSVerse). The geometric mean fluorescence intensity (GMFI; median fluorescence intensity (MFI)) of set antibodies staining was calculated (BD FACSuite software). Dose-response curves were generated and EC50s for thetrispecific variants binding were calculated using GraphPad Prism software.
(§2) Results: The expressed trispecific constructs were analyzed for their binding to cells expressing endogenous CD3ε, 5T4 and NKG2A/NKG2D. […] (FIG. 45F).

[2] = biological target: T2, hCD3epsilon-His (recombinant human CD3 epsilon) (human, UniProt P07766 23-126); test: ELISA on coated hCD3epsilon-His (FIG. 43A)
T2 construct: Bought protein; also called recombinant hCD3ε protein; human CD3ε
Method: Methods: ELISA binding of Tribody/ProTribody antibody constructs to antigens: Dilute target protein (hCD3epsilon-His (cat # 10977-H08S, supplier Sino Biological); h5T4-His (cat# 19845-H08H, supplier Sino Biological); NKG2A-CD94-ECD-hFc, Lot:20200724002, provided by CP; or NKG2D-ECD-hFc, Lot: 20200413002, provided by CP) into PBS with final concentration of 0.01 µg/mL for hCD3epsilon-His, 0.3 µg/mL for h5T4-His, 1 µg/mL for NKG2A-CD94-ECD-hFc and 0.7 µg/mL for hNKG2D-ECD-hFc respectively and coat 100 µL/well on ELISA plate (cat: 9018, supplier Corning) respectively. Incubate O/N, 4° C. The plates were blocked with 250 µL 1% BSA in PBST for 1 hr at 37° C.Wash 4 times with PBST. All the washes are done using Biotek (Elx 405). All the Tribody set antibodies were diluted to 400 nM and make 4-fold serially dilutions (12 points, including 0 point). Add 100 µL/well diluted antibody constructs solution to plate, incubate for 1 hr at 37° C.Wash 4 times with PBST. Add 100 µL/well anti-human kappa light chain-HRP (1:10000), incubate for 0.5 hr at 37° C. Wash 4 times with PBST. 100 µL/well of TMB substrate was added and incubated at room temperature for 5 min. 100 µL/well of 1N HCl to terminate reaction. Plates were read using ELISA plate reader at 450 nm wavelength (instrunet SpectraMax M5e). […]

[3] = biological target: T3, h5T4-His (recombinant human 5T4) (human, UniProt Q13641 32-355, limits assumed); test: ELISA on coated h5T4-His (FIG. 43B)
T3 construct: Bought protein; also called recombinant 5T4
T3 sequence (looked up): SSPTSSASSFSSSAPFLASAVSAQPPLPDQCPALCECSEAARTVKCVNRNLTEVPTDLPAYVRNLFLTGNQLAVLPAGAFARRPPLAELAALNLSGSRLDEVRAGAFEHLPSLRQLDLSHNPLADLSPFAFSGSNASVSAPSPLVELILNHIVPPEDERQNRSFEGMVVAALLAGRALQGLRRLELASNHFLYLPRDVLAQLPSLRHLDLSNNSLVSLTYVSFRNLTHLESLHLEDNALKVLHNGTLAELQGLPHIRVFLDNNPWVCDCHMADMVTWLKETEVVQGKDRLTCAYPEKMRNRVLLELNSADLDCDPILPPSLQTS
Method: (§3) Methods: ELISA binding of Tribody/ProTribody antibody constructs to antigens: Dilute target protein (hCD3epsilon-His (cat # 10977-H08S, supplier Sino Biological); h5T4-His (cat# 19845-H08H, supplier Sino Biological); NKG2A-CD94-ECD-hFc, Lot:20200724002, provided by CP; or NKG2D-ECD-hFc, Lot: 20200413002, provided by CP) into PBS with final concentration of 0.01 µg/mL for hCD3epsilon-His, 0.3 µg/mL for h5T4-His, 1 µg/mL for NKG2A-CD94-ECD-hFc and 0.7 µg/mL for hNKG2D-ECD-hFc respectively and coat 100 µL/well on ELISA plate (cat: 9018, supplier Corning) respectively. Incubate O/N, 4° C. The plates were blocked with 250 µL 1% BSA in PBST for 1 hr at 37° C.Wash 4 times with PBST. All the washes are done using Biotek (Elx 405). All the Tribody set antibodies were diluted to 400 nM and make 4-fold serially dilutions (12 points, including 0 point). Add 100 µL/well diluted antibody constructs solution to plate, incubate for 1 hr at 37° C.Wash 4 times with PBST. Add 100 µL/well anti-human kappa light chain-HRP (1:10000), incubate for 0.5 hr at 37° C. Wash 4 times with PBST. 100 µL/well of TMB substrate was added and incubated at room temperature for 5 min. 100 µL/well of 1N HCl to terminate reaction. Plates were read using ELISA plate reader at 450 nm wavelength (instrunet SpectraMax M5e). Data Analysis was performed using Graphpad prism 5 software by using nonlinear regression (curve fit): log (agonist) vs. response, agonist is antibody concentration (nM) and response is OD value.

[4] = biological target: T4, NKG2A on NK92 cells (endogenous) (UniProt P26715 1-233, limits assumed); test: FACS on NK92 cells (FIG. 45C)
T4 construct: whole, on cells
Method: as §1, with “Suspension cultured cells was harvested directly, and adherent cell were digested using TrypLE Express Enzyme (cat: 12604-013, supplier Life technologies). Centrifuge at 1000 rpm for 5 min and discard the supernatant. Cells are suspended at a concentration of 2×10⁶/mL in FACS buffer (2% FBS in PBS) and add 100 µL/well of cell suspension to the plate (cat #3799, supplier Corning). Centrifuging the plates at 2000 rpm for 5 min and discard the supernatant. Re-suspend the cells in 100 µL/well of Tribody set antibodies (400 nM start, 4-fold dilution, 8 point including 0 point) and incubate the plate for 60 min at 4° C. Centrifuge the plate at 2000 rpm, 4° C. for 5 min and discard supernatant. Then” for “Then”, “Then wash the cells 3 times with FACS buffer and analyze the sample with FACS verse.” left out

[5] = biological target: T5, human CD3 epsilon on cells (Jurkat T cells, endogenous) (human, UniProt P07766 23-207); test: FACS on Jurkat T cells, endogenous hCD3ε (FIG. 45A)
T5 construct: whole, on cells; On cells CD3 epsilon stands in the TCR/CD3 complex; only the epsilon chain is named as target; also called hCD3ε on Jurkat; CD3ε expressing cells
Method: Suspension cultured cells was harvested directly, and adherent cell were digested using TrypLE Express Enzyme (cat: 12604-013, supplier Life technologies). Centrifuge at 1000 rpm for 5 min and discard the supernatant. Cells are suspended at a concentration of 2×10⁶/mL in FACS buffer (2% FBS in PBS) and add 100 µL/well of cell suspension to the plate (cat #3799, supplier Corning). Centrifuging the plates at 2000 rpm for 5 min and discard the supernatant. Re-suspend the cells in 100 µL/well of Tribody set antibodies (400 nM start, 4-fold dilution, 8 point including 0 point) and incubate the plate for 60 min at 4° C. Centrifuge the plate at 2000 rpm, 4° C. for 5 min and discard supernatant. Then wash the cells 3 times with 170 µL FACS buffer. […] The fluorescence intensity of the staining was measured using flow cytometer (BD, FACSVerse). The geometric mean fluorescence intensity (GMFI; median fluorescence intensity (MFI)) of set antibodies staining was calculated (BD FACSuite software). Dose-response curves were generated and EC50s for thetrispecific variants binding were calculated using GraphPad Prism software.
Results: The expressed trispecific constructs were analyzed for their binding to cells expressing endogenous CD3ε, 5T4 and NKG2A/NKG2D.

[6] = biological target: T6, NKG2A/CD94 on CHO cells (CHOK1-NKG2A-CD94) (human, UniProt P26715 1-233; Q13241 1-179, limits assumed); test: FACS on CHO cells over-expressing NKG2A/CD94 (FIG. 45E)
T6 construct: whole, on cells; also called CHO cells over-expressing NKG2A/CD94; CHO cell line over expressing ectopic NKG2A
Method: as §1, §2

NKG2A-CD94-ECD-hFc = biological target: T7, NKG2A-CD94-ECD-hFc (human, UniProt P26715 94-233; Q13241 32-179, limits assumed); test: ELISA on coated NKG2A-CD94-ECD-hFc (FIG. 43C)
T7 construct: extracellular domain; Lot 20200724002, 'provided by CP'; the two-chain layout here is only the reading of the name; also called human NKG2A (recombinant); NKG2A antigen; not shown: human Fc (hFc)
Method: as §3

T7 sequence (P26715 94-233 limits assumed, chain 1 of 2): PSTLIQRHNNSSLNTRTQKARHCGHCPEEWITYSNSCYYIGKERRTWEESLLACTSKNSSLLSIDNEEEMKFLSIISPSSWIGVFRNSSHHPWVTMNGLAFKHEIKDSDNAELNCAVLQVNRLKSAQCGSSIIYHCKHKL
T7 sequence (Q13241 32-179 limits assumed, chain 2 of 2): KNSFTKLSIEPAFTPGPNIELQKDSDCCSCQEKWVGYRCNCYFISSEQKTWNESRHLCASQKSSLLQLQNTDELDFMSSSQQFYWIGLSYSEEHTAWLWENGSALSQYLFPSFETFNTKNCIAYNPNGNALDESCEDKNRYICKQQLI
T5 sequence (P07766 23-207): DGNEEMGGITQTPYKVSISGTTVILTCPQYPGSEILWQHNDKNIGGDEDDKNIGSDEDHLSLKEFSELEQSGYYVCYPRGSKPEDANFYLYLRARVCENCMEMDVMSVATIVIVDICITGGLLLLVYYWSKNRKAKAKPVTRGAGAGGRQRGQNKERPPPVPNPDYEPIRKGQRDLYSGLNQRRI
T4 sequence (P26715 whole entry): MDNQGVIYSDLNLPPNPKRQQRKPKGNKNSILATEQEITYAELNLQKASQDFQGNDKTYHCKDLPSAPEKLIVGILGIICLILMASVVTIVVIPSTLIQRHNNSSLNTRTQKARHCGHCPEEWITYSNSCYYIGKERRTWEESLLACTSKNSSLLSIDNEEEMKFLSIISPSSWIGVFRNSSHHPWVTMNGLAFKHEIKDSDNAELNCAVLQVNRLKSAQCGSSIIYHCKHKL
T6 sequence (P26715 whole entry, chain 1 of 2): as the sequence (P26715 whole entry) above
T6 sequence (Q13241 whole entry, chain 2 of 2): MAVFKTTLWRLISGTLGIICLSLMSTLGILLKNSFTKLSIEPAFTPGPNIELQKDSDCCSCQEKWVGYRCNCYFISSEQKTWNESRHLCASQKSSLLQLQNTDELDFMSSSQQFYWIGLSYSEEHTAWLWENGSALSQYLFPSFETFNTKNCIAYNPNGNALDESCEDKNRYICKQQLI
T2 sequence (P07766 23-126 limits assumed): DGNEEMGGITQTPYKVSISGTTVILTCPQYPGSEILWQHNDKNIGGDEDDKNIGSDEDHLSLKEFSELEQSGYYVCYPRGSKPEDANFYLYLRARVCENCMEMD

B1: IM-1093 Tribody, NKG2A mutant variant (other)
heavy: GGSGGSEVQLVESGGGLVQPGGSLRLSCAASGFTFNTYAMNWVRQAPGKGLEWVARIRSKYNNYATYYADSVKDRFTISRDDSKNTLYLQMNSLRAEDTAVYYCVRHGNFGNSYVSWFAYWGQGTMVTVSSASTKGPSVFPLAPSSKSTSGGTAALGCLVKDYFPEPVTVSWNSGALTSGVHTFPAVLQSSGLYSLSSVVTVPSSSLGTQTYICNVNHKPSNTKVDKRVEPKSCPPCGGGGSDIQMTQSPSSLSASVGDRVTITCRASENIYSALAWYQQKPGKAPKLLIYNAKTLAEGVPSRFSGSGSGTDFTLTISSLQPEDFATYYCQHHAGTPRTFGGGTKVEIKGGGGSGGGGSGGGGSGGGGSQVQLVQSGAEVKKPGASVKVSCKASGYTFTSYWMNWVRQAPGQGLEWMGRIDPYDSETHYAQKLQGRVTMTTDTSTSTAYMELRSLRSDDTAVYYCARGGYDFDVDTLYWFFDVWGQGTTVTVSS
light: GGSGGSQAVVTQEPSLTVSPGGTVTLTCRSSTGAVTTSNYANWVQQKPGQAPRGLIGGTNKRAPGTPARFSGSLLGGKAALTLSGVQPEDEAEYYCALWYSNLWVFGGGTKLTVLGQPKAAPSVTLFPPSSEELQANKATLVCLISDFYPGAVTVAWKADSSPVKAGVETTTPSKQSNNKYAASSYLSLTPEQWKSHRSYSCQVTHEGSTVEKTVAPTECPPCSGGGSDIQMTQSPSSLSASVGDRVTITCRASQGISNYLAWFQQKPGKAPKSLIYRANRLQSGVPSRFSGSGSGTDFTLTISSLQPEDVATYYCLQYDDFPWTFGQGTKLEIKGGGGSGGGGSGGGGSGGGGSQVQLVQSGAEVKKPGASVKVSCKASGYTFTSFWMHWVRQAPGQGLEWMGRIDPNRGGTEYNEKAKSRVTMTADKSTSTAYMELSSLRSEDTAVYYCAGGNPYYPMDYWGQGTTVTVSS
notes: also called NKG2A mutated Tribody
B1 gave an EC50 [1] of 1.3 nM, an EC50 [2] of 1.84 nM and an EC50 [3] of 12 nM. For the same binder, the binding result [4] was “no binding (tested: dilution series from 400 nM)”, the EC50 [5] was 1.3 nM and the binding result [6] was “no binding (tested: dilution series from 400 nM)”. B1: no binding (tested: dilution series from 400 nM) (NKG2A-CD94-ECD-hFc).
